Assay results published in patent US20170096495A1 (Hoffmann-La Roche, published 2017).
Read-outs that look alike come from different tables or passages of the source.

Experiments:
Assay in all cases: cell-based or functional assay
[1] = biological target: T1, human STEAP-1 (Six-transmembrane epithelial antigen of prostate 1) (human, UniProt Q9UHE8 1-339)
[2] = biological target: T1, human STEAP-1 (Six-transmembrane …); remark: listed apart in the source
[3] = biological target: T1, human STEAP-1 (Six-transmembrane …); remark: listed apart in the source
[4] = biological target: T1, human STEAP-1 (Six-transmembrane …); remark: listed apart in the source
[5] = biological target: T1, human STEAP-1 (Six-transmembrane …); remark: listed apart in the source
[6] = biological target: T1, human STEAP-1 (Six-transmembrane …); remark: listed apart in the source
[7] = biological target: human CD3 (human, UniProt P07766 23-207)
[8] = biological target: T1, human STEAP-1 (Six-transmembrane …); remark: listed apart in the source

T1 sequence (Q9UHE8 whole entry): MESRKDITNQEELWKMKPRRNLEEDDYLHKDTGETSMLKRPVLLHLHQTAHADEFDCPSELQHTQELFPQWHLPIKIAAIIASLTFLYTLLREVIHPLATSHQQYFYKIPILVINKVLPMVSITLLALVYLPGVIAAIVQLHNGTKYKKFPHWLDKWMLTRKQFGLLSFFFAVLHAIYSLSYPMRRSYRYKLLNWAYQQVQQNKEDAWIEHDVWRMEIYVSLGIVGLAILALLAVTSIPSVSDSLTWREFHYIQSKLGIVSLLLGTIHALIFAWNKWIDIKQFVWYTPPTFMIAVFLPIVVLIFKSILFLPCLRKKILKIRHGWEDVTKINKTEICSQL
Chain of human CD3 (P07766 23-207 limits assumed): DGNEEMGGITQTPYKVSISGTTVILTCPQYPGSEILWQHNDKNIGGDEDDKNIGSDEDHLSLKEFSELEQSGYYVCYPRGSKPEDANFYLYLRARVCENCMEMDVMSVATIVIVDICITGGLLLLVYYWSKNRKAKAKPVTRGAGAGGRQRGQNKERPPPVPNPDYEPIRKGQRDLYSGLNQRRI

B1: STEAP-1 TCB Molecule F: "2+1 IgG CrossFab, inverted" with charge modifications (VH/VL exchange in CD3 binder, charge modification in STEAP-1 binders) (bispecific antibody)
heavy 1: EVQLVESGGGLVQPGGSLRLSCAVSGYSITSDYAWNWVRQAPGKGLEWVGYISNSGSTSYNPSLKSRFTISRDNSKNTLYLQMNSLRAEDTAVYYCARERNYDYDDYYYAMDYWGQGTLVTVSSASTKGPSVFPLAPSSKSTSGGTAALGCLVEDYFPEPVTVSWNSGALTSGVHTFPAVLQSSGLYSLSSVVTVPSSSLGTQTYICNVNHKPSNTKVDEKVEPKSCDKTHTCPPCPAPEAAGGPSVFLFPPKPKDTLMISRTPEVTCVVVDVSHEDPEVKFNWYVDGVEVHNAKTKPREEQYNSTYRVVSVLTVLHQDWLNGKEYKCKVSNKALGAPIEKTISKAKGQPREPQVCTLPPSRDELTKNQVSLSCAVKGFYPSDIAVEWESNGQPENNYKTTPPVLDSDGSFFLVSKLTVDKSRWQQGNVFSCSVMHEALHNHYTQKSLSLSP
heavy 2: not shown
light 1: DIQMTQSPSSLSASVGDRVTITCKSSQSLLYRSNQKNYLAWYQQKPGKAPKLLIYWASTRESGVPSRFSGSGSGTDFTLTISSLQPEDFATYYCQQYYNYPRTFGQGTKVEIKRTVAAPSVFIFPPSDRKLKSGTASVVCLLNNFYPREAKVQWKVDNALQSGNSQESVTEQDSKDSTYSLSSTLTLSKADYEKHKVYACEVTHQGLSSPVTKSFNRGEC
light 2: EVQLLESGGGLVQPGGSLRLSCAASGFTFSTYAMNWVRQAPGKGLEWVSRIRSKYNNYATYYADSVKGRFTISRDDSKNTLYLQMNSLRAEDTAVYYCVRHGNFGNSYVSWFAYWGQGTLVTVSSASVAAPSVFIFPPSDEQLKSGTASVVCLLNNFYPREAKVQWKVDNALQSGNSQESVTEQDSKDSTYSLSSTLTLSKADYEKHKVYACEVTHQGLSSPVTKSFNRGEC
B1 was tested. Which “EC50 [pM] 24 h, T-cell mediated killing of LnCAP cells (LDH release, human PBMCs, E:T 10:1)” value [1] did it give?
The value was 100 pM.

What about the “EC50 [pM] 24 h, T-cell mediated killing of MKN45 cells (LDH release, human PBMCs, E:T 10:1)” value [1] of the same binder?
Its value is 1500 pM.

B2: STEAP-1 TCB Molecule C: "2+1 IgG CrossFab, inverted" with charge modifications (CH1/CL exchange in CD3 binder, charge modification in STEAP-1 binders) (bispecific antibody)
light: DIQMTQSPSSLSASVGDRVTITCKSSQSLLYRSNQKNYLAWYQQKPGKAPKLLIYWASTRESGVPSRFSGSGSGTDFTLTISSLQPEDFATYYCQQYYNYPRTFGQGTKVEIKRTVAAPSVFIFPPSDRKLKSGTASVVCLLNNFYPREAKVQWKVDNALQSGNSQESVTEQDSKDSTYSLSSTLTLSKADYEKHKVYACEVTHQGLSSPVTKSFNRGEC
heavy: EVQLVESGGGLVQPGGSLRLSCAVSGYSITSDYAWNWVRQAPGKGLEWVGYISNSGSTSYNPSLKSRFTISRDTSKNTLYLQMNSLRAEDTAVYYCARERNYDYDDYYYAMDYWGQGTLVTVSSASTKGPSVFPLAPSSKSTSGGTAALGCLVEDYFPEPVTVSWNSGALTSGVHTFPAVLQSSGLYSLSSVVTVPSSSLGTQTYICNVNHKPSNTKVDEKVEPKSCDKTHTCPPCPAPEAAGGPSVFLFPPKPKDTLMISRTPEVTCVVVDVSHEDPEVKFNWYVDGVEVHNAKTKPREEQYNSTYRVVSVLTVLHQDWLNGKEYKCKVSNKALGAPIEKTISKAKGQPREPQVCTLPPSRDELTKNQVSLSCAVKGFYPSDIAVEWESNGQPENNYKTTPPVLDSDGSFFLVSKLTVDKSRWQQGNVFSCSVMHEALHNHYTQKSLSLSP
chain 1: not shown
chain 2: QAVVTQEPSLTVSPGGTVTLTCGSSTGAVTTSNYANWVQEKPGQAFRGLIGGTNKRAPGTPARFSGSLLGGKAALTLSGAQPEDEAEYYCALWYSNLWVFGGGTKLTVLSSASTKGPSVFPLAPSSKSTSGGTAALGCLVKDYFPEPVTVSWNSGALTSGVHTFPAVLQSSGLYSLSSVVTVPSSSLGTQTYICNVNHKPSNTKVDKKVEPKSC
With B2 as the binder, how does the “EC50 [pM] 24 h, T-cell mediated lysis of LnCaP cells (LDH release)” value [2] read?
Its value is 152 pM.

And the “EC50 [pM] 48 h, T-cell mediated lysis of LnCaP cells (LDH release)” value [2]?
Its value is 12.8 pM.

What about the “EC50 [nM], activation of Jurkat-NFAT reporter cells (luminescence after 6 h) with LnCaP cells” value [3] of the same binder?
The value was 39.5 nM.

B3: STEAP-1 TCB Molecule B: "2+1 IgG CrossFab, inverted" without charge modifications (VH/VL exchange in CD3 binder) (bispecific antibody)
light: EVQLLESGGGLVQPGGSLRLSCAASGFTFSTYAMNWVRQAPGKGLEWVSRIRSKYNNYATYYADSVKGRFTISRDDSKNTLYLQMNSLRAEDTAVYYCVRHGNFGNSYVSWFAYWGQGTLVTVSSASVAAPSVFIFPPSDEQLKSGTASVVCLLNNFYPREAKVQWKVDNALQSGNSQESVTEQDSKDSTYSLSSTLTLSKADYEKHKVYACEVTHQGLSSPVTKSFNRGEC
chain 1: EVQLVESGGGLVQPGGSLRLSCAVSGYSITSDYAWNWVRQAPGKGLEWVGYISNSGSTSYNPSLKSRFTISRDTSKNTLYLQMNSLRAEDTAVYYCARERNYDYDDYYYAMDYWGQGTLVTVSSASTKGPSVFPLAPSSKSTSGGTAALGCLVKDYFPEPVTVSWNSGALTSGVHTFPAVLQSSGLYSLSSVVTVPSSSLGTQTYICNVNHKPSNTKVDKKVEPKSCDKTHTCPPCPAPEAAGGPSVFLFPPKPKDTLMISRTPEVTCVVVDVSHEDPEVKFNWYVDGVEVHNAKTKPREEQYNSTYRVVSVLTVLHQDWLNGKEYKCKVSNKALGAPIEKTISKAKGQPREPQVCTLPPSRDELTKNQVSLSCAVKGFYPSDIAVEWESNGQPENNYKTTPPVLDSDGSFFLVSKLTVDKSRWQQGNVFSCSVMHEALHNHYTQKSLSLSP
chain 2: not shown
chain 3: not shown
Which results are given for B3?
EC50 [pM] 24 h, T-cell mediated lysis of LnCaP cells (LDH release) [2]: 95.7 pM; EC50 [pM] 48 h, T-cell mediated lysis of LnCaP cells (LDH release) [2]: 22.9 pM; EC50 [nM], activation of Jurkat-NFAT reporter cells (luminescence after 6 h) with LnCaP cells [3]: 5.73 nM

B4: STEAP-1 TCB Molecule E: "1+1 IgG CrossMab" with charge modifications (VH/VL exchange in CD3 binder, charge modification in STEAP-1 binder) (bispecific antibody)
heavy 1: EVQLVESGGGLVQPGGSLRLSCAVSGYSITSDYAWNWVRQAPGKGLEWVGYISNSGSTSYNPSLKSRFTISRDTSKNTLYLQMNSLRAEDTAVYYCARERNYDYDDYYYAMDYWGQGTLVTVSSASTKGPSVFPLAPSSKSTSGGTAALGCLVEDYFPEPVTVSWNSGALTSGVHTFPAVLQSSGLYSLSSVVTVPSSSLGTQTYICNVNHKPSNTKVDEKVEPKSCDKTHTCPPCPAPEAAGGPSVFLFPPKPKDTLMISRTPEVTCVVVDVSHEDPEVKFNWYVDGVEVHNAKTKPREEQYNSTYRVVSVLTVLHQDWLNGKEYKCKVSNKALGAPIEKTISKAKGQPREPQVCTLPPSRDELTKNQVSLSCAVKGFYPSDIAVEWESNGQPENNYKTTPPVLDSDGSFFLVSKLTVDKSRWQQGNVFSCSVMHEALHNHYTQKSLSLSP
heavy 2: not shown
light 1: DIQMTQSPSSLSASVGDRVTITCKSSQSLLYRSNQKNYLAWYQQKPGKAPKLLIYWASTRESGVPSRFSGSGSGTDFTLTISSLQPEDFATYYCQQYYNYPRTFGQGTKVEIKRTVAAPSVFIFPPSDRKLKSGTASVVCLLNNFYPREAKVQWKVDNALQSGNSQESVTEQDSKDSTYSLSSTLTLSKADYEKHKVYACEVTHQGLSSPVTKSFNRGEC
light 2: EVQLLESGGGLVQPGGSLRLSCAASGFTFSTYAMNWVRQAPGKGLEWVSRIRSKYNNYATYYADSVKGRFTISRDDSKNTLYLQMNSLRAEDTAVYYCVRHGNFGNSYVSWFAYWGQGTLVTVSSASVAAPSVFIFPPSDEQLKSGTASVVCLLNNFYPREAKVQWKVDNALQSGNSQESVTEQDSKDSTYSLSSTLTLSKADYEKHKVYACEVTHQGLSSPVTKSFNRGEC
What does the source list for B4?
EC50 [pM] 24 h, STEAP-1 TCB-mediated lysis of LnCaP cells (LDH release) [4]: 1860 pM; EC50 [pM] 48 h, STEAP-1 TCB-mediated lysis of LnCaP cells (LDH release) [4]: 1560 pM; EC50 [nM], activation of Jurkat-NFAT reporter cells (luminescence after 6 h), presence of CHO-hSTEAP1 [5]: 0.51 nM; EC50 [nM], activation of Jurkat-NFAT reporter cells (luminescence after 6 h), presence of LnCaP cells [5]: 0.054 nM; EC50 [nM], activation of Jurkat-NFAT reporter cells (luminescence after 6 h), presence of CHO-hSTEAP1 [6]: 0.79 nM; EC50 [nM], activation of Jurkat-NFAT reporter cells (luminescence after 6 h), presence of STEAP-1-negative CHO-K1 [7]: 18.8 nM; EC50 (pM), activation of primary T cells with LnCaP cells, 48 h: % CD4 + CD25+ [8]: 7960 pM; EC50 (pM), activation of primary T cells with LnCaP cells, 48 h: % CD4 + CD69+ [8]: 4310 pM; EC50 (pM), activation of primary T cells with LnCaP cells, 48 h: % CD8 + CD25+ [8]: 5060 pM; EC50 (pM), activation of primary T cells with LnCaP cells, 48 h: % CD8 + CD69+ [8]: 588 pM
